Laboratory results published in FireProtDB (doi:10.1006/jmbi.2000.4053).
Values joined by “and” are separate entries in the source; they are usually repeats but may differ in a detail not shown here. Equal entries are not always repeated.

Conditions: Homo sapiens, pH 5, 25 °C
[1] = GdnHCl, CD, Sodium acetate 50 mM, structure 1TTG
[2] = Urea, CD, Sodium acetate 50 mM, structure 1TEN
[3] = GdnHCl, Fluorescence, Sodium acetate 50mM, transition: 2, structure 1TEN
[4] = GdnHCl, Fluorescence, Sodium acetate 50mM, transition: 2, structure 1FNF

Fibronectin I1571V, P02751, sequence (P02751 whole entry I1571V): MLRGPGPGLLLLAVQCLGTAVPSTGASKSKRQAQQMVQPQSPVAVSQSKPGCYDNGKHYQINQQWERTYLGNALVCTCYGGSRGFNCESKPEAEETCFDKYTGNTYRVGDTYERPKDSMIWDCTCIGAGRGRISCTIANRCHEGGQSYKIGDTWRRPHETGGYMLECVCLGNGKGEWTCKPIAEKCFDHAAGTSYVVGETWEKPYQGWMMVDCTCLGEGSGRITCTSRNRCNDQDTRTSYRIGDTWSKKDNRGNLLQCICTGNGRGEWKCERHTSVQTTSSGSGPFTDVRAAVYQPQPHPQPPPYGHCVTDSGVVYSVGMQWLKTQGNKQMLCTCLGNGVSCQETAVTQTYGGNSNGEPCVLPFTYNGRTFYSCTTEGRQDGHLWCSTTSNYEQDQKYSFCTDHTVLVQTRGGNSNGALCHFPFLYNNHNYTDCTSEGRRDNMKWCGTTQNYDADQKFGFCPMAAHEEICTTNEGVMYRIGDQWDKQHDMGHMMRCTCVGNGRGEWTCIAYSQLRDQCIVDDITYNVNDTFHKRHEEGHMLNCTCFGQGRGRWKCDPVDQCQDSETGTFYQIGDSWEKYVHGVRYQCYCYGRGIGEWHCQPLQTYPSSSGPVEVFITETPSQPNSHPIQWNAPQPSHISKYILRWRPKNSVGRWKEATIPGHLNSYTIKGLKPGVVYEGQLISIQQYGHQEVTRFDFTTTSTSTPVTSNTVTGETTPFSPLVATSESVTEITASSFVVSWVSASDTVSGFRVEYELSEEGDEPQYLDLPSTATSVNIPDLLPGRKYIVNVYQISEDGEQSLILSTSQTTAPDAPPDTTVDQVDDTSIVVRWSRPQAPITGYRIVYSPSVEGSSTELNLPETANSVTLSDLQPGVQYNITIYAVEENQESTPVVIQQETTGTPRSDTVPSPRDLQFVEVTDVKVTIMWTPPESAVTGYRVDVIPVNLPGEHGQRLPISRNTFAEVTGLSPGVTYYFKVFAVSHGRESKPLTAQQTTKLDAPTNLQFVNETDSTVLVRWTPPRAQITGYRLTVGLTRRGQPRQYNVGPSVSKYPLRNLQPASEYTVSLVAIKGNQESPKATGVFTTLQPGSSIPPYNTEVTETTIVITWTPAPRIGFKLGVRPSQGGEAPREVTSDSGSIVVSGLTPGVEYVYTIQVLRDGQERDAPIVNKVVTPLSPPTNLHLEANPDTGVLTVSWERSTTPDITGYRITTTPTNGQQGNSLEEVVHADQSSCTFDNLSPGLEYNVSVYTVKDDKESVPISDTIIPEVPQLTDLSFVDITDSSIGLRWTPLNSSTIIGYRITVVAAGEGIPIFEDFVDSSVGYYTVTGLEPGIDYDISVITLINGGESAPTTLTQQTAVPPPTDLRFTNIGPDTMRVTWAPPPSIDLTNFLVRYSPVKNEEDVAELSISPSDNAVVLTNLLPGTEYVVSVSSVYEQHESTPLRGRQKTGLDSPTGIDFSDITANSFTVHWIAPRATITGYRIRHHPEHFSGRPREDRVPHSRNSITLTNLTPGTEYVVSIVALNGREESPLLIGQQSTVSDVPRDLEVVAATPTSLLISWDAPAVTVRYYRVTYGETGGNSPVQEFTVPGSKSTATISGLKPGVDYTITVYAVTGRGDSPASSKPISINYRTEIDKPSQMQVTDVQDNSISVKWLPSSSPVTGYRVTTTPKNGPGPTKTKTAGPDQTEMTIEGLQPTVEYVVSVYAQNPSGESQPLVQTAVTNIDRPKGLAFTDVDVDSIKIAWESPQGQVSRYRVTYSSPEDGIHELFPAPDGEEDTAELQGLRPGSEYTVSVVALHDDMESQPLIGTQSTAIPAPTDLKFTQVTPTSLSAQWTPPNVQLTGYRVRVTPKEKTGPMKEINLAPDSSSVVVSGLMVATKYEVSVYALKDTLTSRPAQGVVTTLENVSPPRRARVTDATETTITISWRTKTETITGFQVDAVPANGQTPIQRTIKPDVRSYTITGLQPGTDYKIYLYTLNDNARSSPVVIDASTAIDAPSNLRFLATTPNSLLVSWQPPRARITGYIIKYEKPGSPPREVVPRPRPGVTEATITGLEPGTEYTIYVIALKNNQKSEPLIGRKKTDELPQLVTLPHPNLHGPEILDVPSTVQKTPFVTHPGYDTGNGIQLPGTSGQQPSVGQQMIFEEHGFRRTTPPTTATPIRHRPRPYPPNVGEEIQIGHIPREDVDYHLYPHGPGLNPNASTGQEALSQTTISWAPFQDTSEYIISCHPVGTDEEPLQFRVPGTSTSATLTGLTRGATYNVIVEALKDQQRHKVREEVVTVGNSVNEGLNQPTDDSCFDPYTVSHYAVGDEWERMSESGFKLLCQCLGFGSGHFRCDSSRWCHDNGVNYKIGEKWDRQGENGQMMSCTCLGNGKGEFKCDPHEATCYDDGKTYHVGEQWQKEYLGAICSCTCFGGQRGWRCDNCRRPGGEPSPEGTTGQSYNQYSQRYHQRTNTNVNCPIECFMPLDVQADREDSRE
Fibronectin I1596V, P02751, sequence (P02751 whole entry I1596V): as the sequence (P02751 whole entry I1571V) above, with V1571I, I1596V counted along it

| Substance | ddG of mutation (higher = less stable) [1] | denaturant m value [1] [kcal/mol/M] | denaturant midpoint (higher = more stable) [1] [M] | ddG of mutation (higher = less stable) [2] | denaturant m value [2] [kcal/mol/M] | denaturant midpoint (higher = more stable) [2] [M] | ddG of mutation (higher = less stable) [3] [kcal/mol] | denaturant m value [3] [kcal/mol/M] | denaturant midpoint (higher = more stable) [3] [M] | other results |
| --- | --- | --- | --- | --- | --- | --- | --- | --- | --- | --- |
| Fibronectin Y1569A, P02751 | 4.37 kcal/mol and 3.96 kcal/mol | 6.8 | 0.8 |  |  |  |  |  |  |  |
| Fibronectin I1596A, P02751 | 3.66 kcal/mol | 7.2 | 0.91 |  |  |  |  |  |  |  |
| Tenascin, P24821 S875A |  |  |  | -0.04 kcal/mol | 1.1 | 5.36 |  |  |  |  |
| Tenascin, P24821 I833A |  |  |  | 3.28 kcal/mol | 1.2 | 2.63 | 3.28 | 4.91 | 1.1 |  |
| Tenascin, P24821 V811A |  |  |  | 1.36 kcal/mol | 1.2 | 4.21 | 1.36 | 3.03 | 1.3 |  |
| Fibronectin L1599A, P02751 | 2.94 kcal/mol | 6.6 | 1.02 |  |  |  |  |  |  |  |
| Fibronectin I1625V, P02751 | 0.35 kcal/mol | 6.5 | 1.42 |  |  |  |  |  |  |  |
| Tenascin, P24821 V871A |  |  |  | 2.81 kcal/mol | 1.3 | 3.01 |  |  |  |  |
| Tenascin, P24821 I860V |  |  |  | 0.83 kcal/mol | 1.2 | 4.64 | 0.83 | 1.86 | 1.5 |  |
| Tenascin, P24821 I809A |  |  |  | 2.86 kcal/mol | 1.3 | 2.98 | 2.86 | 5.17 | 1.3 |  |
| Tenascin, P24821 I809V |  |  |  | 0.18 kcal/mol | 1.3 | 5.17 | 0.18 | 4.21 | 1.2 |  |
| Fibronectin A1550G, P02751 | 0.93 kcal/mol | 6.1 | 1.33 |  |  |  |  |  |  |  |
| Tenascin, P24821 A819G |  |  |  | 2.8 kcal/mol | 1.3 | 3.03 | 2.8 | 2.31 | 1.3 |  |
| Fibronectin Y1569F, P02751 | 0.41 kcal/mol | 6.3 | 1.41 |  |  |  |  |  |  |  |
| Tenascin, P24821 I821A |  |  |  | 3.67 kcal/mol | 1.3 | 2.31 | 3.67 | 5.13 | 1.2 |  |
| Fibronectin L1545A, P02751 | 1.64 kcal/mol | 6.2 | 1.22 |  |  |  |  |  |  |  |
| Tenascin, P24821 I830A |  |  |  | 1.38 kcal/mol | 1.1 | 4.19 | 1.38 | 5.06 | 1.2 |  |
| Fibronectin P1542A, P02751 | -0.11 kcal/mol | 6.4 | 1.49 |  |  |  |  |  |  |  |
| Tenascin, P24821 P826A |  |  |  | 1.73 kcal/mol | 1 | 3.9 |  |  |  |  |
| Fibronectin V1566A, P02751 | 1.45 kcal/mol | 6.6 | 1.25 |  |  |  |  |  |  |  |
| Fibronectin V1587A, P02751 | 2.42 kcal/mol | 5.7 | 1.1 |  |  |  |  |  |  |  |
| Fibronectin V1547A, P02751 | 1.38 kcal/mol | 6.8 | 1.26 |  |  |  |  |  |  |  |
| Fibronectin I1607A, P02751 | 3.72 kcal/mol | 5.6 | 0.9 |  |  |  |  |  |  |  |
| Fibronectin F1585A, P02751 | 2.16 kcal/mol | 6.8 | 1.14 |  |  |  |  |  |  |  |
| Fibronectin V1603A, P02751 | 0.67 kcal/mol | 6.12 | 1.37 |  |  |  |  |  |  |  |
| Fibronectin I1596V, P02751 | 1.12 kcal/mol | 7.1 | 1.3 |  |  |  |  |  |  |  |
| Tenascin, P24821 P884A |  |  |  | 0.11 kcal/mol | 1.1 | 5.23 |  |  |  |  |

| Substance | ddG of mutation (higher = less stable) [1] | denaturant m value [1] [kcal/mol/M] | denaturant midpoint (higher = more stable) [1] [M] | ddG of mutation (higher = less stable) [2] | denaturant m value [2] [kcal/mol/M] | denaturant midpoint (higher = more stable) [2] [M] | ddG of mutation (higher = less stable) [3] [kcal/mol] | denaturant m value [3] [kcal/mol/M] | denaturant midpoint (higher = more stable) [3] [M] | other results |
| --- | --- | --- | --- | --- | --- | --- | --- | --- | --- | --- |
| Tenascin, P24821 Y858G |  |  |  | 4.14 kcal/mol and 2.76 kcal/mol | 1.3 | 1.93 |  | 4.19 | 1.3 |  |
| Tenascin, P24821 E887G |  |  |  | 0.34 kcal/mol | 1.3 | 5.04 | 0.34 |  |  |  |
| Fibronectin I1571V, P02751 | 0.41 kcal/mol | 6.9 | 1.41 |  |  |  |  |  |  |  |
| Fibronectin A1611G, P02751 | 1.38 kcal/mol | 6.2 | 1.26 |  |  |  |  |  |  |  |
| Tenascin, P24821 T867S |  |  |  | 1.22 kcal/mol | 1.2 | 4.32 |  |  |  |  |
| Tenascin, P24821 Y869F |  |  |  | 3.13 kcal/mol | 1.3 | 2.75 | 3.13 | 3.01 | 1.3 |  |
| Tenascin, P24821 I833V |  |  |  | 0.5 kcal/mol | 1.1 | 4.91 | 0.5 | 1.8 | 1.4 |  |
| Fibronectin Y1569L, P02751 | 2.81 kcal/mol and 2.4 kcal/mol | 6.6 | 1.04 |  |  |  |  |  |  |  |
| Fibronectin Y1573A, P02751 | 2.29 kcal/mol | 7.9 | 1.12 |  |  |  |  |  |  |  |
| Tenascin, P24821 I830V |  |  |  | 0.32 kcal/mol | 1.2 | 5.06 | 0.32 | 2.63 | 1.2 |  |
| Tenascin, P24821 Y837A |  |  |  | 4.22 kcal/mol | 1.5 | 1.86 |  |  |  |  |
| Tenascin, P24821 L851A |  |  |  | 2.99 kcal/mol | 1.3 | 2.87 | 2.99 | 1.93 | 1.3 |  |
| Tenascin, P24821 E887A |  |  |  | -1.61 kcal/mol | 1.2 | 6.64 | -1.61 | 5.04 | 1.3 |  |
| Tenascin, P24821 F889A |  |  |  | 5.43 kcal/mol |  | 0.9 | 5.43 |  |  |  |
| Tenascin, P24821 I821V |  |  |  | 0.23 kcal/mol | 1.2 | 5.13 | 0.23 | 3.9 | 1 |  |
| Fibronectin Y1629A, P02751 | 1.19 kcal/mol | 6.6 | 1.29 |  |  |  |  |  |  |  |
| Fibronectin P1601A, P02751 | 0.41 kcal/mol | 6.6 | 1.41 |  |  |  |  |  |  |  |
| Tenascin, P24821 S882A |  |  |  |  |  |  | 2.82 | 5.23 | 1.1 |  |
| Tenascin, P24821 P865A |  |  |  | 0.93 kcal/mol | 1.2 | 4.55 | 0.93 | 4.32 | 1.2 |  |
| Fibronectin Y1629F, P02751 | -0.11 kcal/mol | 6.5 | 1.49 |  |  |  |  |  |  |  |
| Tenascin, P24821 L873A |  |  |  | 3.06 kcal/mol | 1.4 | 2.81 |  |  |  |  |
| Tenascin, P24821 L863A |  |  |  | 4.22 kcal/mol | 1.5 | 1.86 | 4.22 | 4.55 | 1.2 |  |
| Fibronectin A1594G, P02751 | 2.81 kcal/mol | 7.1 | 1.04 |  |  |  |  |  |  |  |
| Fibronectin I1625A, P02751 | 0.35 kcal/mol | 6.03 | 1.42 |  |  |  |  |  |  |  |
| Tenascin, P24821 P806A |  |  |  | 2.74 kcal/mol | 1.1 | 3.07 | 2.74 | 2.98 | 1.3 |  |
| Fibronectin I1627V, P02751 | 0.28 kcal/mol | 6.3 | 1.43 |  |  |  |  |  |  | ddG of mutation (higher = less stable) [4]: 1.12 kcal/mol; denaturant m value [4]: 7.1 kcal/mol/M; denaturant midpoint (higher = more stable) [4]: 0.91 M; unfolding free energy [4]: 8.28 kcal/mol |
| Fibronectin Y1605F, P02751 | 2.03 kcal/mol | 6.2 | 1.16 |  |  |  |  |  |  |  |
